Results taken from publication PMC11467669.

Molecular target: full-length USP8 (a.a. 7-1110) phosphorylated at S718 by AMPK (human) (UniProt P40818)
Assay: SEC-MALLS

Chain of full-length USP8 (a.a. 7-1110) phosphorylated at S718 by AMPK (human) (P40818 7-1110): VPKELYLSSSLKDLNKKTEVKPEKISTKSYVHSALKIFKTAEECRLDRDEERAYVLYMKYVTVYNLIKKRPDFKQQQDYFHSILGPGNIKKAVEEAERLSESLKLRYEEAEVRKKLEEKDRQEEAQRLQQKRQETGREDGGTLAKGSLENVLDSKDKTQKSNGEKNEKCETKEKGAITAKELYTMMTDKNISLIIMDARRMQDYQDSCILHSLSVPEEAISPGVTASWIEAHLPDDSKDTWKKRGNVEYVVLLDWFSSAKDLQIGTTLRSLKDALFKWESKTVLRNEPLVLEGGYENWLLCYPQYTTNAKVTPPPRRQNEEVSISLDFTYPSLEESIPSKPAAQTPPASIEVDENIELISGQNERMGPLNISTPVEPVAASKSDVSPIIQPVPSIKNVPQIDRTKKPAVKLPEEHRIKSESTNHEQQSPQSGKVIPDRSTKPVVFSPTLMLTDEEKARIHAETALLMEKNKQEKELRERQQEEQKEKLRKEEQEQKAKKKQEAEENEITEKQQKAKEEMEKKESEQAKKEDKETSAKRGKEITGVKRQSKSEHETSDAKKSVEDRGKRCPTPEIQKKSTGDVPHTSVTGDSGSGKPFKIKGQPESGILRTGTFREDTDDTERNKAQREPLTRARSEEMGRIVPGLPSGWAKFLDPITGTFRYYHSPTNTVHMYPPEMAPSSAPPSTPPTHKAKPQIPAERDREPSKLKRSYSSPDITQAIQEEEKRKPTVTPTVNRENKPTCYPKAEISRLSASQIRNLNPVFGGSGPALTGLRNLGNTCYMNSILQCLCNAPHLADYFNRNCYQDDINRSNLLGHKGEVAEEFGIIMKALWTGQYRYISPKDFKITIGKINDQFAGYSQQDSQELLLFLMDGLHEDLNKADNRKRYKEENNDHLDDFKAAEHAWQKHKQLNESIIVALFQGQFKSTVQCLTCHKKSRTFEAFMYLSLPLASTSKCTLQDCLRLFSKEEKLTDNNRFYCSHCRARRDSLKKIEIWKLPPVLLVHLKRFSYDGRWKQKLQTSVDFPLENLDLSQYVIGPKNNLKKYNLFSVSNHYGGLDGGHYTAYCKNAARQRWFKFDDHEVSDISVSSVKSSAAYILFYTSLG

stoichiometry N (14-3-3γ dimer per USP8): 1
Substance: 14-3-3γ (from UniProt P61981 1-247) (natural protein)
